Legend:
[1] = target: Escherichia coli MG1655 thioredoxin reductase TrxB (Escherichia coli MG1655) (UniProt P0A9P4)
[2] = target: Bacillus subtilis 168 thioredoxin reductase TrxB (Bacillus subtilis 168) (UniProt P80880)
Sequence of UniProt P80880 (P80880 whole entry): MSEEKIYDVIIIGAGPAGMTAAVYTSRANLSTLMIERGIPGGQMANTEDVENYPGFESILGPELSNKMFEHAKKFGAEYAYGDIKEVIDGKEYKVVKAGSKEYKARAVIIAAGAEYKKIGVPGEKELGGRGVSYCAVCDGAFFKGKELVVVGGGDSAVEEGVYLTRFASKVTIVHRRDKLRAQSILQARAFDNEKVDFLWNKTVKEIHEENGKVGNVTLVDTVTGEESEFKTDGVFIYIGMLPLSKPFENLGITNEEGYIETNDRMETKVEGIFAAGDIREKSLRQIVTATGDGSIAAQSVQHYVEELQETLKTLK

Sequence of UniProt P0A9P4 (P0A9P4 whole entry): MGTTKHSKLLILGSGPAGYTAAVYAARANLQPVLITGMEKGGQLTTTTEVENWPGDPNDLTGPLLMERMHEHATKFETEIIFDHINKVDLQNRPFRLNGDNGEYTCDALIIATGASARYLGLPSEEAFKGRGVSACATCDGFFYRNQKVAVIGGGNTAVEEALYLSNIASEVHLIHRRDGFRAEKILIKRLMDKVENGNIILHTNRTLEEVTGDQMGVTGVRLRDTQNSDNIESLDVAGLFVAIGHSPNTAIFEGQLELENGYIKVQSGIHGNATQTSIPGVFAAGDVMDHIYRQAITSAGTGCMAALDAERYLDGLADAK

Km of TrxB for its substrate TrxA; DTNB reduction assay (TNB release, A412), 50 nM ecTrxB, 0 to 6 μM ecTrxA, NADPH, no auranofin [1]	Km of TrxB for its substrate TrxA; DTNB reduction assay (TNB release, A412), 50 nM bsTrxB, 0 to 6 μM bsTrxA, NADPH, no auranofin [2]	Molecule
1.35 µM		Escherichia coli K-12 MG1655 thioredoxin TrxA (from UniProt P0AA25 1-109) (natural protein)
	1.72 µM	Bacillus subtilis 168 thioredoxin TrxA (natural protein) MAIVKATDQSFSAETSEGVVLADFWAPWCGPCKMIAPVLEELDQEMGDKLKIVKIDVDENQETAGKYGVMSIPTLLVLKDGEVVETSVGFKPKEALQELVNKHL
